The domain aggregation screens of Martell et al. (2025)

Assay: soluble fraction after stress (log2 fold change); higher = more stays soluble; pooled small domains, quantitative proteomics
Details: stress: 50 degC
In short: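 The stress applied to every library was 50°C. These custom libraries of small protein domains were pooled and measured at high throughput with quantitative proteomics as the read-out. Aggregation propensity is expressed as the base-two logarithm of the fold change in how much of each protein remains soluble. The higher the value, the more of that protein stays in solution.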

Row | Sequence | soluble fraction (log2)
1 | HMEPDTVVVPNFVGKVYASEIEGNEAYSDFTFVIKEGNDPEQDIGVVLKQTPNEGLEVKKGKEITLTINQ | -0.0593
2 | HMEPEAKIDFILKAAQKRLGLYGYEKTTMQEIAADINMSKAALYYYFPDKESLFKAVVENEQEEYFH | -1.63
3 | HMEPEDVIAMERYLASGAIKGIGVTLAGRIIKKFQKETFHIIEEEPERLSEVKGISEKLAREIYQQFTQK | -0.873
4 | HMEPERRHLEVPAEAEGERIDRFLASQLENLSRSRIQALIKAGYVRNRRGTIEDPGLRVKPGDAFVVDLPP | 0.44
5 | HMEPEVEITYFKPDERKAGGAYVTVTGAVIKVDDFERLITMQDGTKIPMDDILSIDGELFLS | -0.333
6 | HMEPGEVQVDGLRFIAQPQERNDFEVALEQFRAGNFAAARKSFAAFINTYKQSGYLPSARFW | -0.0516
7 | HMEPLKLGDATGDGKINLQDVLEMQKHMAGILVLKGKFFTAADVNGNGKIELVDVLSVQKYLAGVTAEV | 0.00939
8 | HMEPLVSKVFQVSYQKTADLVALIKSEDSKLLSARGTLISDERTSQIFVQDTPTRLERISMIVNGL | -0.883
9 | HMEPMNMYSSIKKVIGVVSGKGGVGKSLVTASLARMMRAKGYHVGIMDADITGPSIPKMYGLHEMA | 0.42
10 | HMEPVDYEALRKELMQKVMGLFTQSRDVGIQILSSFGAKKLSDVPDDKLVAFAASVDKALAG | -0.0404
11 | HMEPVQFIQFKIPDGHPWSGQLLREVRLPPGTLVVLLKHDGKNIIPNGETPLLAGDSVILSAASPT | -0.197
12 | HMEQAAQPQTGFDPRRLKAGDAVHLLALDQRGVLLEDPKPGAESAPVSVGVAGVRVVVPLREMEALPAG | 0.157
13 | HMEQEVLDLLFDAIRSLPEKYRRLFDMSFEQGLKNAEIAALLHVSESAVKKQKASMIQQLRDDLLRKTGKD | -0.693
14 | HMEQFDFTILRELRKRAGLSIGEVSAESGVSAAVISKLERNRTRAELDTLYRLARVFGITAAELLNLAEA | -2.06
15 | HMEQIETIFLSAAPYARTHIIHLLETSELFRDKYLTIVETSNGLLIYTEDKNRLLGILNSLT | -1.9
16 | HMEQIFTELIMDGRVLGENLHRMGVDETWLLRQLRQQGYHSAREVFLAVADANKQVAVYPVS | -0.308
17 | HMEQINVTIQTEKGRIDKVLSEHLPNHSRSQIQQWLKEKHVTVNGETVRANYKVTAGDEIVVTIPEPEV | 0.206
18 | HMEQISDEDTLRKMVNEVLDNNQTQLEQYKSGKTNLIGFFVGQTLKKSAGKANPSIVNKLVNEEIYI | 0.00998
19 | HMEQISIETRIEQLLARLSETEASGFEELFADTSSRADLITTFLALLEMIRLKLVRVFQDGSFGPIRIYKR | -0.27
20 | HMEQKISVPALVGRDIEEILADTEVTGNFTIKEADKRVASNRPVGEVLEQDPGTGESAVKGTIITVTVSAG | 0.0124
21 | HMEQNTKAYEQVRTLTDLLNQYRHEYYNLSAPSVSDQEYDRLFDALAALEKQTGIVMSNSPTQTVG | 0.0359
22 | HMEQPAPSTTVDILGGGRAALVTANRELGLALADDEIDYLTDSFTQLGRNPVDVELMMFAQA | 0.00743
23 | HMEQSLNTYSIRTVKESLFLAETKNLNKIEKLVEGIEGRLTLSEALVLFSDKLNAMSVLSHVNANT | -0.148
24 | HMEQTIKKYVNVATLNFRSGPSTSYSIISTLSKGTKVEVISTTNNWSKIIYDGKIGYVSSEYLSKSI | -2.1
25 | HMEQVPEAVGRRVRQARSDRGWTLDQLAERSEVSRRMIVNVEAGTSNASIATLLRLATALNVGLAELVA | -1.41

Row | Sequence | soluble fraction (log2)
26 | HMEQVVFNGTGRRKSSIARVRIMSGKGNITVNGKALDEYFGEETLKVIVRQPLTVTDTLDKYDVIATVK | 0.203
27 | HMEQYYVFFAGGMTIGTKEWYESILPENIATSYDDILEGKMMPASLEQIEFYNSHKDYDLYHLFYML | -4.11
28 | HMERAFRILELFDLKQDELPITEIAERTGLPISTAHRLLSTLETLGYIAQNPDNGRYRLGLQTFVLGSR | -0.987
29 | HMERAPAYPDGLTQREVEVLRLIASGKTDREIAEELFIGVRTVSTHVGNILNKTNSANRTEAASYANQQGL | -0.191
30 | HMEREQNIAQGREVVQRELKRLGLTDVFTVEDIGRALKFDDIDEFLSKVGFGDIQTAKITGAIALMQQALR | 0.0611
31 | HMEREQNIEHGRAIVERELKRLGLSDVYTIADIATALRHDDVDQFLAKIGFGDIQSTQIGGAIAALQQR | -0.0664
32 | HMEREQPFAVTEAYRGMRLDRFLQAMLPRMSRAAIQDAIDNRVRLGSGRAAKASLRPAIGDTVFFGQRI | -0.822
33 | HMERFRQVNAGMTRDDIYQLLGKPTEKTPFPLKNEEVWSWRHQADGQTVALFNIHLDPDGRVTTTSQSMDL | 0.021
34 | HMERFVVISKDKYANLREEASTNSKVLAKVDNSYLIYNTNTYNENKDWYSVQIERDGNYYQVGYIHKSQL | -1.79
35 | HMERLKRVTLSLNQSNYSVTEIARRLQAITGIKDITVVEDEQAVYLKVDPATFDLTLAQQAV | -0.218
36 | HMERLLVSKINGMITEAKVSVEDVVKVVASRGHYPEVKSIDEYPDDFLSRWVVPNFKKIVEMINANKEA | 0.187
37 | HMERMTSTEILTRDFLTTNSKIVKKSTIEELSEIIHVSPATIIRTVKKMGYSGFSEYKNELINQ | -0.06
38 | HMERPEVVAYRLAYASAESLRPALGLVASPSDLEIDERTNTLIVRAVPSVQERVAELVASLDI | -0.237
39 | HMERPKSLRELALEHLRNSIIDGSLKMGQVLSERKISEELGVSKSPVREALAQLRDEGLVSIEPQKGARV | 0.213
40 | HMERPLFVIEDYRRFAGNEVEISLKKGGKKIRGVIAGTPSDAEVTVRTQGGETTVPLGDVKRAHLVYV | 0.123
41 | HMERRDEINSVVSRYVSAITEGKYDLAEVDETGKLRVQTEGREVLPEALSRGTLEQFYFAFRMAVGSI | -0.118
42 | HMERTQSIEAAREQLGEVTKDNVFETETLGALAILKENEPGEYAKIKADLKGKINMNDLERAVKKAAADQR | ≥ 0.62
43 | HMERYFVLVIYDIVDNKKRLKLSKYLLGYGIRVQKSAFEMMITKEKYNKLIKELPTYIEEGEDSIRLY | 0.132
44 | HMERYLLRDNIPNALHGERLDRVIAIMTGLSRSAVSALIKSNQVLRNGQIAQSISEKVVEGDELEVHLEP | -0.0223
45 | HMESDAIAAAIAALPARYREVLLLRYDNGFSYSEISKALDMTEAAVRKTVQRAKEALQRTLQIQEEDT | -0.471
46 | HMESDRVAHVVAPGETLFSISGKYGIGMGELVAANPVLESRPPRTGDTLLIRLPENPLPAETDAETLS | 0.121
47 | HMESIAEIDRMNAKIFMDEFQDSLSIMQKTTNPETFFSRYDLAMERLDNMVELQQKGIKFTSDLSSLKAQ | 0.0074
48 | HMESIEGMYKISLLRKQGNAYVIFEDENKEAVEHIFPEKPTALELGTKVIEMFEYKERYDGLI | -0.366
49 | HMESILDDFPGLGEKRKKALLEHFGSISKIKAATVGQLREVDGIGFETAAALREFLDANFPA | 0.158
50 | HMESIPDELLEAFKQDPAFKQAFYALTAGRQRGYIIHFSQPKQSQTRIGRIEKYKEQIFNGIGLN | -0.643

Row | Sequence | soluble fraction (log2)
51 | HMESKPLTPSEIKKLRMDANMTQAGLAEVLGMTVKAVEAWESGRNIPSGAADKILRVMQKHPSVIGMMQS | 0.156
52 | HMESLNDRIKLVFKDSGLTQMDISKRLNIAQSSVSGIISGKANPSKRTLADIADRFDVNLEWLRDGTGPMK | 0.337
53 | HMESLSHRQKSIVDWVQKNGYASIERMAEQFEVSAQTIRRDVIELSERRILQRHHGGASLPAG | -0.0143
54 | HMESNDSNIEDDFYEGLKSMRKGDLKMSVVFFTRVIEKKPTFAEAWNRRATVYYMLGKFDKSMFDINETLK | -0.115
55 | HMESPELIHILKEAEWQIWQQIQGLPEKQRIAMTLFAMDDLSYQEIADVMKVSVSAIESLLFRARTQLKKY | -0.601
56 | HMESPLEQLTNRELQTLQMLGKGLSTKQIAAQLNLSVKTVETYRENLKRKLNLDSGSELIRYAIHRSNE | 0.469
57 | HMESPLNPTDVRRAAMDLLARREHGVEELRLKLKRRFGREEDFETIATEQLQRLVDEDLLSDTRF | -0.165
58 | HMESRETGLPVVIISDGRILQDNLKRRGLDLSWLDKQLAEHGYPDFRDVFLLTVDEAGGVYFVPRE | 0.333
59 | HMESSNLESQLKKGIVPNLNGLSAKDALFLLENSGFNVKLYGMGSVKKQSLEAGKKYNKGDKITLIL | 0.112
60 | HMESSYKGFILDIETRQFSPTLIQRRGIAINPSGIVETTTEFSFATQEKVLIEDLKLIIDELDLRADY | -4.07
61 | HMESTLNYSQFLSLVNEDRVAEVVIQGKELYVTDVNRSRFKVYAPPDPELIGLLRQKRVIISAKP | -0.0196
62 | HMESVDRIYERVRRYADDVGTAKIPMKELDDDGPLGTAVSRIRERRKRGELTEEWEARFETLPGWTWAA | 0.0038
63 | HMESWEDSNIANEFKSTIKIAEKRLAEGGDHPELLEKLEALKQAIINENQTEASKLDDQVNDILFDMDD | -0.0057
64 | HMETEAGIKAYLSSSMIKGIGPVTAQRIVERFGKRTLYVLDQMPEKLLDISGISEAKLEEILNGYRKS | -0.24
65 | HMETFGEKDLDELIGRNVELITHDGKVREGLVDSVDRYNVSLVRYLDAGEVAMMVRRREVKAVRLK | 0.0419
66 | HMETFGLSQRELQILSQLHKGQPLKEFAASLFITESTLKTHLSAIYRKMSVKNRVQAIEKAKQSGL | -1.24
67 | HMETGEDSLRRYFNSLPGSASKREILEDNPTVSQRTTERILQKLQAEGFIEKVGAARATRYRKVKQ | 0.209
68 | HMETGELQQILEDVFSKNIGIVQDKREAAFSILMGMIMAKSRGRADGALVSTLLKKKLTEFLATSDQVR | 0.0929
69 | HMETGNEDYRVGKELAYDGNYKAATIYLMKSIKDDPNNPDAFNMLGFSHRKLGNNDEAYIYYNKALEL | -0.387
70 | HMETKKEIIEAINELEEKYRNAIYLTSIEKLSYEETSKILGQSLSNTKNLIHRGKQQLRKILIKK | -0.214
71 | HMETLEDHRKKTRQQLFDALSHLLQTSTFESLTMAKIAEEAGVGRTAVYNHFQDKEALLLAFITYETGQ | -1.05
72 | HMETLETYTSRLRQLEDITNNFKGVDKSFAIQAGREIRVMVVPEQVSDADMILMARDISKAIEAELEYPGQ | -0.0847
73 | HMETLGADLRALRKSRGLTLLDMAESLGRSVGWLSQVERDLSDPSISDLREIAELLGVPISMLFRH | -2.86
74 | HMETLKEMDSKGAINASEVNVREGAGTSSSKMYSLSKGASVDVTGIKGDWYRVHTSKGTGYVLAKYVTLVS | -0.0779
75 | HMETLYGQIVNDIMEKIESNAWPVGYVIPTESDFQKQYGVSRATVRNAILKLAHLGYLVRKKGSGTYVTRP | -0.975
